Measured values from PMC8614642.

Target: recombinant K38 depolymerase region (residues 147-742) of the tailspike gp46 of Acinetobacter pittii phage vB_Api_3043-K38 (Acinetobacter pittii phage vB_Api_3043-K38)
Experiment: SEC; analytical size exclusion on Superose 6 10/300 GL, 10 mM PBS pH 7.5, 4 °C, 0.75 mL/min, mass estimated from calibration standards

“recombinant K38 depolymerase region (residues 147-742) of the tailspike gp46 of Acinetobacter pittii phage vB_Api_3043-K38 (domain or fragment)” was tested, and the stoichiometry N was 3.
